Our source for the protein stability index values is the supplement of paper PMC10567573.

± gives the standard deviation.

This data set is described as follows: protein stability index of a GFP-peptide fusion (GPS, HEK-293T) (PSI 1-6); higher = more stable.
The mark [1] stands for this setting: treatment: DMSO, c terminus: a fixed tail appended.
[2] abbreviates: treatment: MLN4924 1 uM, 8 h, c terminus: a fixed tail appended.
Setting [3] is: treatment: DMSO, c terminus: native.
[4] abbreviates: treatment: MLN4924 1 uM, 8 h, c terminus: native.
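Note: 24-mer peptide tiles fused after GFP, lentivirally expressed, FACS-sorted into six equal bins by GFP/DsRed ratio, decoded by Illumina sequencing, PSI is the read-weighted mean bin number.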

For the sequence HKQDGKAGLFSQEQYERNKSSSSS [TMEM40], the protein stability index worked out at 5.3 ± 0.35 under setting [1] and 5.31 ± 0.15 under setting [2].
Regarding HKRRRRKQKVSRIERSSSFSSITD [DVL3], the protein stability index is, setting by setting: under setting [1], 4.28 ± 0.096; under setting [2], 4.55 ± 0.092.
On to HLELTRKLQDLIKDVLRYGEEQLK [FCHO1], for which the protein stability index by setting is: under setting [1], 2.95 ± 0.52; under setting [2], 2.71 ± 0.69.
HLTSVTSESEQEFLYKTAGGLIYW [CD207] came in with a protein stability index under setting [1] of 2.33 ± 0.28 and a protein stability index under setting [2] of 2.63 ± 0.33.
Regarding HPFFFALGKILSVELGKQKKKYMP [FADS1], under setting [2], the protein stability index is 1.89 ± 0.5.
Consider HPGRGLAGRWLWGAQPCLLLPIVP [ADAMTS4], for which the protein stability index reads like this: under setting [1], 2.08 ± 0.7; under setting [2], 1.92 ± 0.31.
Take HPLHPRHRKAVHLRTRGRTRGWVQ [C6orf223]: the protein stability index came to 3.15 ± 0.23 under setting [1] and 3.05 ± 0.49 under setting [2].
As to HQKLEREARICRLLKHPNIVRLHD [CAMK2D], the protein stability index by setting is: under setting [1], 2.51 ± 0.22; under setting [2], 2.9 ± 0.46.
On to HQRKHAGEKPFECRQRLIFEQTPA [ZNF8], for which the protein stability index amounted to 3.65 ± 0.2 under setting [1] and 3.64 ± 0.16 under setting [2].
In the case of HQVPTTAGNKAALLDQIREGAQLK [WASL], the protein stability index reads like this: under setting [1], 4.95 ± 0.18; under setting [2], 4.86 ± 0.33.
For HRDIKPDNLLLDAKGHVKLSDFGL [STK38L], the protein stability index reads like this: under setting [1], 3.27 ± 0.23; under setting [2], 3.4 ± 0.15.
Taken in the same sequence, the figures for HSAVLRDLRSGTLYSLTLYGLRGP [TNXB] were 2.98 ± 0.63 and 2.68 ± 0.38.
Taken in the same sequence, the figures for HSLQQSEPDLRHLVLVVNTLRRIQ [SERTAD1] were 2.44 ± 0.33 and 2.61 ± 0.17.
Take HSMRNSLESTLAETEARYSSQLAQ [KRT36]: the protein stability index amounted to 4.53 ± 0.22 under setting [1] and 4.57 ± 0.17 under setting [2].
Regarding HSVNRDLNELERLSNLVGKPSENH [MED27], the protein stability index was 4.75 ± 0.18 under setting [1] and 4.71 ± 0.11 under setting [2].
Regarding HTMRKISNNITLREDQLDTVLAVL [INTS4], the protein stability index reads like this: under setting [1], 2.39 ± 0.27; under setting [2], 2.35 ± 0.21.
Take HTRQLISCGGDGGIVVWNMDVERQ [WDFY2]: the protein stability index was 2.55 ± 0.36 under setting [1] and 2.4 ± 0.14 under setting [2].
Turning to HVINQGMAMYWGTSRWSSMEIMEA [KCNAB2], the protein stability index worked out at 2.67 ± 0.53 under setting [1] and 2.42 ± 0.21 under setting [2].
In turn, HVKIVKLLLAHKADVNAQSSTGNT [ANKRD17] came in with a protein stability index under setting [1] of 2.32 ± 0.26 and a protein stability index under setting [2] of 2.36 ± 0.22.
Take HVPNPPSGISFPSVVDHPMPEERA [HESX1]: the protein stability index by setting is: under setting [1], 3.48 ± 0.74; under setting [2], 3.99 ± 0.52.
With HWFRKGLRLHDNPALKECIQGADT [CRY1], the protein stability index came out at 3.11 ± 0.19 under setting [1] and 3.45 ± 0.38 under setting [2].
On to IALGQMLSLCICGTAITSQYLAER [SLC35F2], for which the protein stability index is, setting by setting: under setting [1], 3.37 ± 0.27; under setting [2], 2.48 ± 0.16.
As to IATYRSLLEGQDAKMAGIGIREAS [KRT15], the protein stability index is, setting by setting: under setting [1], 3.09 ± 0.23; under setting [2], 3.25 ± 0.1.
Taken in the same sequence, the figures for IDALLEFDVHPNELTNGVINAAFM [SNAP91] were 2.39 ± 0.38 and 2.32 ± 0.36.
In the case of IDTVYSTAFAPKMIVDLLSEKKTI [OR4A15], the protein stability index is, setting by setting: under setting [1], 2.37 ± 0.19; under setting [2], 2.52 ± 0.26.
On to IEEGFNPVQASQLEEEFDSDSGLS [NFE2L1], for which the protein stability index by setting is: under setting [1], 5.37 ± 0.25; under setting [2], 5.44 ± 0.16.
For IFAQGAPRSSLAESFFVDYEENEG [ADAMTSL2], the protein stability index is, setting by setting: under setting [1], 4.05 ± 0.067; under setting [2], 4.98 ± 0.26.
On to IFLGFSSLARLQQLLFVIFLLLYL [OR10K2], for which the protein stability index is 2.65 ± 0.58 under setting [1] and 2.31 ± 0.52 under setting [2].
In the case of IGATFTDWFTSYVKNVVSGGFPII [FBXO3], the protein stability index was found to be 2.65 ± 0.84 under setting [1] and 2.7 ± 0.76 under setting [2].
As for IGGLLGATFNCLNKRLAKYRMRNV [CLCN6], the protein stability index was found to be 2.34 ± 0.2 under setting [1] and 2.2 ± 0.53 under setting [2].
Taken in the same sequence, the figures for IGIEAKNLASYDVCSILLGTSTLL [MCOLN1] were 2.84 ± 0.7 and 2.92 ± 0.66.
Regarding IGREGAKDSYDFFTEIKTITVKH [ALDH8A1], the protein stability index under setting [3] is 2.35 ± 0.43 and the protein stability index under setting [4] was 2.42 ± 0.25.
Consider IKAEPASPDSPKGSSETETEPPVA [ESRRA], for which the protein stability index came to 5.58 ± 0.17 under setting [1] and 5.62 ± 0.11 under setting [2].
For IKEQEVCKLQEQLEATVKKLEESK [SASS6], the protein stability index under setting [1] came to 5.1 ± 0.27 and the protein stability index under setting [2] was 5.05 ± 0.25.
Consider IKLFACYNDGVINLLEKFFEMKKG [SNAP91], for which the protein stability index under setting [1] is 2.39 ± 0.57 and the protein stability index under setting [2] was 2.48 ± 0.37.
For the sequence IKVKPKRVGIFLDYEAGTLSFYNV [TRIM39], the protein stability index by setting is: under setting [1], 2.54 ± 0.54; under setting [2], 2.61 ± 0.48.
With ILAQQPDRLRDEELAELEDALRNL [TRADD], the protein stability index is 5.29 ± 0.22 under setting [1] and 4.94 ± 0.17 under setting [2].
Taken in the same sequence, the figures for ILGRTFFIYDCDPFTRRYYKEKFG [EFHC1] were 2.52 ± 0.63 and 2.24 ± 0.63.
Regarding ILKRKWWKYILLGLADVEANYVIV [SLC35F2], the protein stability index was determined as 2.55 ± 0.5 under setting [1] and 2.23 ± 0.76 under setting [2].
ILLESHMVMIRGNSGLKPKDNEFT [POMT2]: the protein stability index was 2.21 ± 0.31 under setting [1] and 2.15 ± 0.21 under setting [2].
As for ILNTTGTYSGKAADVWSLGVMLYT [TRIB1], the protein stability index came out at 2.7 ± 0.76 under setting [1] and 2.25 ± 0.6 under setting [2].
Taken in the same sequence, the figures for ILRFIYSGAFQWEELEEDIRKKLK [RHOBTB3] were 2.25 ± 0.27 and 2.48 ± 0.53.
Taken in the same sequence, the figures for ILSFILAIPEAIGFVMVPFEYRGE [EDNRA] were 3.6 ± 0.94 and 3.15 ± 0.51.
On to IMIIICCVILGIVIASTVGGIFA [STX1A], for which the protein stability index by setting is: under setting [3], 3.62 ± 0.33; under setting [4], 3.79 ± 0.14.
In turn, INAAFMLLFKDLIKLFACYNDGVI [SNAP91] showed a protein stability index under setting [1] of 2.9 ± 0.54 and a protein stability index under setting [2] of 3.39 ± 0.65.
In the case of IRKYNYVAMDTEFPGVVARPIGEF [CNOT7], the protein stability index was 2.21 ± 0.19 under setting [1] and 2.16 ± 0.2 under setting [2].
For IRVLLAFIVLFLLWPFAWLQVAGL [LPCAT4], the protein stability index came to 2.6 ± 0.69 under setting [1] and 3.14 ± 0.44 under setting [2].
Taken in the same sequence, the figures for IVKAMASPESGLEVRDRMLLKITI [DVL3] were 3.12 ± 0.44 and 2.9 ± 0.55.
Taken in the same sequence, the figures for IVNDELYLNGASVLPHKSIGESVP [GMPPB] were 3.67 ± 0.24 and 3.4 ± 0.29.
As for IYAFAGMTNHQLSTTEWNDETLYQ [CHIT1], the protein stability index amounted to 2.36 ± 0.26 under setting [1] and 2.61 ± 0.22 under setting [2].
For the sequence KACSLLDVAVHMPCLGHTFNAGIQ [ZBED1], the protein stability index runs as follows: under setting [1], 2.19 ± 0.5; under setting [2], 2.11 ± 0.36.
As to KAFADPEVLRRLTSSVSCALDEAA [ANKRD17], the protein stability index was 3.08 ± 0.34 under setting [1] and 3.18 ± 0.21 under setting [2].
In the case of KALNLLPANTQINDIRIFLEKVLE [VPS39], the protein stability index stood at 2.11 ± 0.41 under setting [1] and 2.04 ± 0.29 under setting [2].
